# Measurements published in article PMC12422969.
# Target: GluA3-G (GluA3(Gly439)), flip splice form, R/G-edited, as the GluA3 part of the GluA3-G–TARP-γ2 tandem construct (rat)
# Test: cryo-EM structure; apo state; GluA3–TARP-γ2 tandem construct purified as a complex from Expi293 cells (digitonin lysis; 50 mM Tris pH 8, 150 mM NaCl, 0.1% GDN), 2–3 mg/ml, vitrified at 4 °C
substance,measurement,value
"GluA3-G (GluA3(Gly439)), flip splice form, R/G-edited, as the GluA3 part of the GluA3-G–TARP-γ2 tandem construct (receptor)",stoichiometry N,4
